# PMC5413884, “Enzyme discovery beyond homology: a unique hydroxynitrile lyase in the Bet v1 superfamily” (Scientific Reports, 2017)
# Tests used:
# DtHNL1 [1] = molecular target: T1, DtHNL1 (Davallia tyermanii, UniProt A0A1C9V3S9); assay: X-ray crystal structure, soaking; assay type: binding; conditions: active site
# T1 construct: gene HNL1; dimer; about 20 kDa
# DtHNL1 [2] = molecular target: T1, DtHNL1; assay: benzaldehyde formation at […] nm, Michaelis-Menten fit; assay type: biochemical; conditions: cleavage direction; 50 mM sodium citrate-phosphate pH 5.0, 25 °C
# [3] = molecular target: Davallia tyermannii hydroxynitrile lyase 1 (DtHNL1) (Davallia tyermannii); assay: crystal structure; SeMet-SAD structure at 1.85 Å and native crystals soaked with 4-hydroxybenzaldehyde, benzoic acid or (R)-mandelonitrile; sitting drop vapor diffusion, 16 °C, protein in 10 mM Tris-HCl pH 8.0
# O=Cc1ccccc1 = assay: GC of (R)-mandelonitrile formed, initial rates, Michaelis-Menten fit; assay type: biochemical, Davallia tyermanii; conditions: apparent, synthesis direction, biphasic MTBE/buffer 2:1, 2 M HCN, pH 4.0, 10 °C
# N#C[C@H](O)c1ccccc1 = assay: purified protein; assay type: biochemical, Davallia tyermanii; conditions: cleavage direction, 50 mM sodium citrate-phosphate pH 5.0, 25 °C
# [4] = crystal soaked with (R)-mandelonitrile
compound,measurement,setting,value
"N#C[C@H](O)c1ccccc1 [(R)-mandelonitrile, (2R)-2-hydroxy-2-phenylacetonitrile]","X-ray crystal structure, soaking",DtHNL1 [1]; [4],5E4B (DtHNL1-MXN)
same,Km,DtHNL1 [2],300 ± 30 µM
O=Cc1ccccc1 [benzaldehyde],"X-ray crystal structure, soaking",DtHNL1 [1]; [4],"Bound benzaldehyde (cyan, right) and (R)-mandelonitrile (yellow, left) as observed in a crystal"
O=C(O)c1ccccc1 [benzoic acid],"X-ray crystal structure, soaking",DtHNL1 [1],5E4D (DtHNL1–BEZ)
Davallia tyermannii hydroxynitrile lyase 1 (DtHNL1) (enzyme),stoichiometry N,[3],2
DtHNL1 (Davallia tyermanii),Km,O=Cc1ccccc1,14000 ± 2000 µM
same,kcat,O=Cc1ccccc1,70 ± 7 s⁻¹
DtHNL2 (Davallia tyermanii),Km,N#C[C@H](O)c1ccccc1,450 ± 50 µM
same,kcat,N#C[C@H](O)c1ccccc1,156 ± 3 s⁻¹
DtHNL3 (Davallia tyermanii),Km,N#C[C@H](O)c1ccccc1,750 ± 80 µM
same,kcat,N#C[C@H](O)c1ccccc1,356 ± 8 s⁻¹
DtHNL4 (Davallia tyermanii),Km,N#C[C@H](O)c1ccccc1,630 ± 60 µM
same,kcat,N#C[C@H](O)c1ccccc1,272 ± 5 s⁻¹
